The source of these data is doi:10.1101/2022.06.09.495492, “An atypical F-actin capping protein modulates cytoskeleton behaviors crucial to colonization of Trichomonas vaginalis” (bioRxiv, 2022).

Experiment [1] has as its target T1, GST-Tvactin (T. vaginalis, UniProt A0A8U0WPZ0 1-376).
T1 construct: The same construct stands as GST-Tvactin on beads (pull-down), as G-actin (in G-buffer) and as F-actin (polymer, in F-buffer); the assays tell these apart; No removal of GST is described; also called GST fused-α-actin; G-actin; source: polymerized to F-actin in F-buffer), purified on glutathione-conjugated sepharose beads
Kind of experiment: ELISA; solid-phase binding: 2.5 μM G-actin in G-buffer coated on a 96-well microplate; His-TvFACPα or His-△237 at 0-80 μM, 4°C overnight; anti-6×His detection, OD450; Scatchard plots. The conditions noted are these: both partners purified. (An ELISA detects its analyte on a solid surface through an enzyme-linked reagent.)

The target of experiment [2] is T1, GST-Tvactin. Kind of experiment: ELISA; solid-phase binding: 2.5 μM F-actin in F-buffer coated on a 96-well microplate; His-TvFACPα or His-△237 at 0-80 μM, 4°C overnight; anti-6×His detection, OD450; Scatchard plots. The note with it: both partners purified.
For experiment [3], the target named is T2, α-actin, endogenous (T. vaginalis) (T. vaginalis (endogenous in TH17 …, UniProt A0A8U0WPZ0 1-376)).
T2 construct: α-actin of Trichomonas vaginalis detected by an anti-α-actin antibody as a 42-kDa band; In the cell fractionation it stands as F-actin in the 100,000× g pellet; also called 42-kDa α-actin; F-actin
In words: co-sedimentation; actin biochemical fractionation of trophozoite lysates (Cytoskeleton Inc kit): 100,000× g for 1 hr, F-actin and associated proteins in the pellet, G-actin in the supernatant; western blotting; non-transgenic and transgenic TH17, flagellate and amoeboid forms, DMSO or TBB treatment. The note with it: partners not purified.

B1: His-TvFACPα (natural protein)
chain: MSESENIKIIKTFLANAPPGEYEQCTAALRSIVNDEDLINRARSETLKTWAEEECIVVDVEDHKVIICKEACQRDGIYVDPVTSSLITYDFESRIATPIGDQANMSDFAKELQEELTAYAKNAYKENAAAGVYDTNNGIVIVLRGSSISLKNFRTGKTVAKYTLSKSGSLEGKIVSIQHFFEKGNAVCQHDGDCNTTCSFGDAKSVVKAIRTFEDEWLADYKTTLEKIGTNVLFQLRRKFPYSKQKINWQQEITVGGGMKC
notes: also called His-TvFACPα wild type; Wt; source: recombinant from pET28-His-TvFACPα, purified to homogeneity (protocol of the supplier, QIAGEN)
For orientation: Kd means the free concentration of one partner at which half of the binding sites on the other are occupied at equilibrium, for simple one-to-one binding. A high value points to lower affinity. Regarding B1, the equilibrium dissociation constant (Kd) in experiment [1] is 4.45 µM; in experiment [2], 8.36 µM.

B2: HA-TvFACPα (natural protein)
chain: MSESENIKIIKTFLANAPPGEYEQCTAALRSIVNDEDLINRARSETLKTWAEEECIVVDVEDHKVIICKEACQRDGIYVDPVTSSLITYDFESRIATPIGDQANMSDFAKELQEELTAYAKNAYKENAAAGVYDTNNGIVIVLRGSSISLKNFRTGKTVAKYTLSKSGSLEGKIVSIQHFFEKGNAVCQHDGDCNTTCSFGDAKSVVKAIRTFEDEWLADYKTTLEKIGTNVLFQLRRKFPYSKQKINWQQEITVGGGMKC
notes: also called HA-TvFACPα wild type; source: T. vaginalis TH17 trophozoites, transgenic (Flp-HA-TvFACPα), in lysate
Consider B2, for which the “co-sedimented with F-actin, fold of the endogenous form of the non-transfectant” value in experiment [3] is about 2 fold.
